Data: publication PMC12135187, “A role for pH dynamics regulating transcription factor DNA-binding selectivity”
Numbering of substitutions follows the chain as printed.

Legend:
Conditions in all cases: protein: recombinant; tags: N-terminal GST (pGEX-6P-2); label: 6-FAM; blunt
FOXC2 DBD H122K [1] = target: T1, FOXC2 DBD H122K (UniProt Q99958 72-172, H122K); assay: fluorescence anisotropy; pH 7.0; 20 mM HEPES, 140 mM KCl, 0.05 mM TCEP-HCl, pH 7.0 or 7.5 (pH titration 6.8-8.2), room temperature 30 min, 7.5 nM FAM-DNA
T1 sequence: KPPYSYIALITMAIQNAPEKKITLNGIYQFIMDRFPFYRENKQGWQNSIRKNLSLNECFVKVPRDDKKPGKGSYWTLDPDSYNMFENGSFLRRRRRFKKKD

FOXC2 DBD H122K [2] = target: T1, FOXC2 DBD H122K; assay: fluorescence anisotropy; pH 7.5; 20 mM HEPES, 140 mM KCl, 0.05 mM TCEP-HCl, pH 7.0 or 7.5 (pH titration 6.8-8.2), room temperature 30 min, 7.5 nM FAM-DNA
FOXM1 DBD H287K [3] = target: T2, FOXM1 DBD H287K (UniProt Q08050 222-360, H287K); assay: fluorescence anisotropy; pH 7.0; 20 mM HEPES, 140 mM KCl, 0.05 mM TCEP-HCl, pH 7.0 or 7.5 (pH titration 6.8-8.2), room temperature 30 min, 7.5 nM FAM-DNA
T2 sequence: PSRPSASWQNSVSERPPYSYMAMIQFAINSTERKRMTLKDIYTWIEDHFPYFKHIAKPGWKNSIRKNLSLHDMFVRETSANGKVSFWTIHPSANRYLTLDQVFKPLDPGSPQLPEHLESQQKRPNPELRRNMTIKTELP

FOXN1 DBD WT = target: T3, FOXN1 DBD WT (UniProt O15353 270-366); assay: fluorescence anisotropy; pH 7.0; higher affinity than at pH 7.5; 20 mM HEPES, 140 mM KCl, 0.05 mM TCEP-HCl, pH 7.0 or 7.5 (pH titration 6.8-8.2), room temperature 30 min, 7.5 nM FAM-DNA
T3 sequence: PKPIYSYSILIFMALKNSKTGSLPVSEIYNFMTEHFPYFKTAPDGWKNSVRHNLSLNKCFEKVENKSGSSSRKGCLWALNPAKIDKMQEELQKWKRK

FOXC2 DBD WT = target: T4, FOXC2 DBD WT (UniProt Q99958 72-172); assay: as above
T4 sequence: T1 sequence with K51H

FOXM1 DBD WT = target: T5, FOXM1 DBD WT (UniProt Q08050 222-360); assay: as above
T5 sequence: T2 sequence with K66H

FOXM1 DBD H287K [4] = target: T2, FOXM1 DBD H287K; assay: fluorescence anisotropy; pH 7.5; 20 mM HEPES, 140 mM KCl, 0.05 mM TCEP-HCl, pH 7.0 or 7.5 (pH titration 6.8-8.2), room temperature 30 min, 7.5 nM FAM-DNA
FOXC2 DBD H122N [5] = target: T6, FOXC2 DBD H122N (UniProt Q99958 72-172, H122N); assay: fluorescence anisotropy; pH 7.0; 20 mM HEPES, 140 mM KCl, 0.05 mM TCEP-HCl, pH 7.0 or 7.5 (pH titration 6.8-8.2), room temperature 30 min, 7.5 nM FAM-DNA
T6 sequence: T1 sequence with K51N

FOXC2 DBD H122N [6] = target: T6, FOXC2 DBD H122N; assay: fluorescence anisotropy; pH 7.5; similar to WT at pH 7.5; 20 mM HEPES, 140 mM KCl, 0.05 mM TCEP-HCl, pH 7.0 or 7.5 (pH titration 6.8-8.2), room temperature 30 min, 7.5 nM FAM-DNA

B1: FkhP (dsDNA)
DNA 1: CCATAAACAAC
DNA 2: GTTGTTTATGG
Ka (FOXC2 DBD H122K [1]): 0.86 ± 0.15 μM (as printed; KA = 1/KD, so presumably μM^-1)
Ka (FOXC2 DBD H122K [2]): 0.91 ± 0.08 μM (as printed; KA = 1/KD, so presumably μM^-1)
Ka (FOXM1 DBD H287K [3]): 4.1 ± 0.81 μM (as printed; KA = 1/KD, so presumably μM^-1)
binding result (FOXN1 DBD WT): binds
binding result (FOXC2 DBD WT): binds
binding result (FOXM1 DBD WT): binds
Ka (FOXM1 DBD H287K [4]): 1.8 ± 0.27 μM (as printed; KA = 1/KD, so presumably μM^-1)
Ka (FOXC2 DBD H122N [5]): 0.14 ± 0.03 μM (as printed; KA = 1/KD, so presumably μM^-1)
Ka (FOXC2 DBD H122N [6]): 0.1 ± 0.01 μM (as printed; KA = 1/KD, so presumably μM^-1)
